The supplement of paper PMC9112550, “Optimization of the antimicrobial peptide Bac7 by deep mutational scanning” (BMC Biology, 2022)

System: Escherichia coli TOP10
Assay: shrunken log2 fold change of peptide-encoding DNA abundance (4.5 h post-induction vs induction); higher = less antimicrobial activity (less host growth inhibition)
Conditions: time post-induction: 4.5 h; library: site-saturation at positions 5, 18, 19, 20
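Note: peptides expressed intracellularly from a pBAD plasmid library in pooled LB shake-flask culture, induced with 0.3% L-arabinose, DNA abundance read by NGS, three biological replicates, DESeq2 with apeglm shrinkage.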

Row | Sequence | shrunken log2 fold change
1 | RRIRWRPPRLPRPRPRPPWMPRP | 0.371
2 | RRIRHRPPRLPRPRPRPMLKPRP | -0.164
3 | RRIRYRPPRLPRPRPRPKTRPRP | -0.142
4 | RRIRFRPPRLPRPRPRPKRTPRP | 0.0846
5 | RRIRYRPPRLPRPRPRPLKVPRP | -0.0432
6 | RRIRFRPPRLPRPRPRPFDGPRP | -0.251
7 | RRIRHRPPRLPRPRPRPDSNPRP | -0.0814
8 | RRIRTRPPRLPRPRPRPINLPRP | -0.156
9 | RRIRHRPPRLPRPRPRPAGFPRP | -0.207
10 | RRIRYRPPRLPRPRPRPDWDPRP | -0.543
11 | RRIRYRPPRLPRPRPRPGRKPRP | -0.155
12 | RRIRHRPPRLPRPRPRPISMPRP | -1.58
13 | RRIRLRPPRLPRPRPRPFSMPRP | -0.0455
14 | RRIRPRPPRLPRPRPRPEQEPRP | 0.278
15 | RRIRRRPPRLPRPRPRPASHPRP | 0.4
16 | RRIRFRPPRLPRPRPRPPVMPRP | 0.0132
17 | RRIRNRPPRLPRPRPRPDELPRP | -0.134
18 | RRIRFRPPRLPRPRPRPGTQPRP | -0.0219
19 | RRIRHRPPRLPRPRPRPICTPRP | -0.485
20 | RRIRPRPPRLPRPRPRPRGMPRP | 0.137

Row | Sequence | shrunken log2 fold change
21 | RRIRMRPPRLPRPRPRPEARPRP | 1.76
22 | RRIRNRPPRLPRPRPRPNGVPRP | -0.0397
23 | RRIRCRPPRLPRPRPRPWWRPRP | 0.157
24 | RRIRMRPPRLPRPRPRPMMPPRP | 0.0687
25 | RRIRDRPPRLPRPRPRPIMMPRP | -0.232
26 | RRIRARPPRLPRPRPRPWSSPRP | -0.656
27 | RRIRIRPPRLPRPRPRPHLAPRP | 0.0435
28 | RRIRRRPPRLPRPRPRPKVHPRP | 0.153
29 | RRIRIRPPRLPRPRPRPFQIPRP | 0.0698
30 | RRIRYRPPRLPRPRPRPASCPRP | -0.235
31 | RRIRLRPPRLPRPRPRPMMPPRP | -0.174
32 | RRIRWRPPRLPRPRPRPLGKPRP | 0.136
33 | RRIRCRPPRLPRPRPRPCEEPRP | 0.207
34 | RRIRPRPPRLPRPRPRPQNRPRP | -0.598
35 | RRIRIRPPRLPRPRPRPYSDPRP | -0.186
36 | RRIRCRPPRLPRPRPRPIKAPRP | 0.0144
37 | RRIRNRPPRLPRPRPRPHGVPRP | 0.0154
38 | RRIRMRPPRLPRPRPRPRTEPRP | 0.718
39 | RRIRCRPPRLPRPRPRPEHWPRP | 0.118
40 | RRIRMRPPRLPRPRPRPFCKPRP | -0.224

Row | Sequence | shrunken log2 fold change
41 | RRIRRRPPRLPRPRPRPFDYPRP | -0.0528
42 | RRIRFRPPRLPRPRPRPDDAPRP | 0.133
43 | RRIRTRPPRLPRPRPRPWVIPRP | 0.0147
44 | RRIRTRPPRLPRPRPRPVPEPRP | 0.323
45 | RRIRVRPPRLPRPRPRPPACPRP | 0.692
46 | RRIRHRPPRLPRPRPRPDKAPRP | -0.468
47 | RRIRLRPPRLPRPRPRPKGHPRP | -0.0999
48 | RRIRQRPPRLPRPRPRPLCHPRP | -0.142
49 | RRIRCRPPRLPRPRPRPRWQPRP | 0.0261
50 | RRIRPRPPRLPRPRPRPNADPRP | 0.0878
51 | RRIRVRPPRLPRPRPRPHPMPRP | -0.15
52 | RRIRCRPPRLPRPRPRPNSKPRP | 0.297
53 | RRIRNRPPRLPRPRPRPGWGPRP | 0.492
54 | RRIRHRPPRLPRPRPRPMKIPRP | -0.0248
55 | RRIRGRPPRLPRPRPRPPMDPRP | 0.597
56 | RRIRRRPPRLPRPRPRPSPQPRP | 1.96
57 | RRIRIRPPRLPRPRPRPPQQPRP | 0.197
58 | RRIRARPPRLPRPRPRPHQRPRP | 0.0964
59 | RRIRERPPRLPRPRPRPERHPRP | -0.152
60 | RRIRQRPPRLPRPRPRPNWNPRP | -0.206
